Reference: paper PMC6706451, “Crystal structure and substrate-induced activation of ADAMTS13” (Nature Communications, 2019)
Where a chain is given by its changes, count along the chain named.

T1: ADAMTS13 (human, UniProt Q76LX8 75-1427)
T1 construct: ADAMTS13, recombinant; holds TSP2-4 (detected with an anti-ADAMTS13 TSP2-4 polyclonal antibody); The introduction says the short propeptide is removed before secretion; also called recombinant ADAMTS13
T1 sequence (looked up): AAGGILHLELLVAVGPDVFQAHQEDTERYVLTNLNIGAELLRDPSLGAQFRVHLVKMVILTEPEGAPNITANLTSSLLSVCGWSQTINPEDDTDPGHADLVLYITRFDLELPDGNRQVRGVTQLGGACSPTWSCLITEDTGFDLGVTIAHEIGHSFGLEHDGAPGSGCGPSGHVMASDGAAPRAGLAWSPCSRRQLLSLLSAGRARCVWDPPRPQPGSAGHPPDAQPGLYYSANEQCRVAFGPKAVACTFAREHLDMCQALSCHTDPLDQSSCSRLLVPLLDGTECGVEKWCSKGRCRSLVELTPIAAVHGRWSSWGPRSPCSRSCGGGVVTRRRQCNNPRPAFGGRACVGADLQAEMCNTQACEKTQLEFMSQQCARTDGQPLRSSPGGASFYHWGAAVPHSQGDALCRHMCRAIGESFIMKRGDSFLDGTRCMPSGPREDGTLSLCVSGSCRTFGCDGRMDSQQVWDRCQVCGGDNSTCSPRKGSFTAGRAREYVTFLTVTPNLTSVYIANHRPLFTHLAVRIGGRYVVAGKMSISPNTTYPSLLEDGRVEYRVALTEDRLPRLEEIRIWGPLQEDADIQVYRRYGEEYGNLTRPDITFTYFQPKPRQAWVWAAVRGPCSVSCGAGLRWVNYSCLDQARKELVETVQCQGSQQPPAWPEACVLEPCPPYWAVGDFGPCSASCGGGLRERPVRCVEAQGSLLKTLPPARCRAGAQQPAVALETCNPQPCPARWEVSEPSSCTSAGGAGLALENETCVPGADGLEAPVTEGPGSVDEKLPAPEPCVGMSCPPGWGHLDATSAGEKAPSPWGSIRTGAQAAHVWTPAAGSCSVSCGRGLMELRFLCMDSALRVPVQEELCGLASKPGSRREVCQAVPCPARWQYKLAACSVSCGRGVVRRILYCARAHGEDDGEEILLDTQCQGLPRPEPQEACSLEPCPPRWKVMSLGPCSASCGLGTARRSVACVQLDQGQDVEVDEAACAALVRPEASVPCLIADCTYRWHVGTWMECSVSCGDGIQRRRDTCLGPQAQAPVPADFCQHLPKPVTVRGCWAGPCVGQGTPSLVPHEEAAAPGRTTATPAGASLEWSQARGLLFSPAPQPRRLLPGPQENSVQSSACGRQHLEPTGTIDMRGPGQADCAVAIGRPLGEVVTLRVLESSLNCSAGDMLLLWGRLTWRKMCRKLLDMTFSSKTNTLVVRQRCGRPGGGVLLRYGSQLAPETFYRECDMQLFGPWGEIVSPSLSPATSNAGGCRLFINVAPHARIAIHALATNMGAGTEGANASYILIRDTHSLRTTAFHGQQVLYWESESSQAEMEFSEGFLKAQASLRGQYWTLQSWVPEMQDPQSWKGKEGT

T2: ADAMTS13 MDTCS(E225Q) (human, UniProt Q76LX8 78-682, E225Q, N-linked glycans at Asn142, Asn146, Asn552, Asn579, Asn614, Asn667 and an O-linked glycan on Ser399 (seen in the structure))
T2 construct: Drosophila BiP signal cleaved off to give the native N terminus Gly78; Vector pMT-BiP-PURO; also called MDTCS(E225Q) active-site mutant; not shown: 6xHis, C-terminal, kept
T2 sequence (looked up): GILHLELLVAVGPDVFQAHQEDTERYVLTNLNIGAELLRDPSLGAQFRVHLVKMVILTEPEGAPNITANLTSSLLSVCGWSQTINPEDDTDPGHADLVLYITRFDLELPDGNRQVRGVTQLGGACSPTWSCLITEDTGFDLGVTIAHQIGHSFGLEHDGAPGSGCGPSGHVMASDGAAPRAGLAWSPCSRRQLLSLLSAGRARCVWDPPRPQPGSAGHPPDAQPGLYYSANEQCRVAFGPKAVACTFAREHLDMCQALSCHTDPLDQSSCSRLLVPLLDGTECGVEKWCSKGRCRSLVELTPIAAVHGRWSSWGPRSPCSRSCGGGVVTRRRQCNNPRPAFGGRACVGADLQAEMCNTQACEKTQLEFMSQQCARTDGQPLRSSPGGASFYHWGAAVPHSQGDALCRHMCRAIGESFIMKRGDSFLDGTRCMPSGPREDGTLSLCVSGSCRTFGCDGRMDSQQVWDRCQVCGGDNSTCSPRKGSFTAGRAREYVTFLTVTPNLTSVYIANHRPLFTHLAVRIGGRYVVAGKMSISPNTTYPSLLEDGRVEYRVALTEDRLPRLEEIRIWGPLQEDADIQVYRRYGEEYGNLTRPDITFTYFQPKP

B1: ADAMTS13 (enzyme)
chain: T1 sequence (looked up)
B2: VWF87(ΔSpacer) (domain or fragment)
chain: GNRTNTGLALRYLSDHSFLVSQGDREQAPNLVYMVTGNPASDEIKRLPGDIQVVPIGVGPNANVQELERIGWPNAPILIQDFETLPR
notes: von Willebrand factor, A2 domain fragment: VWF96 (Gly1573-Arg1668) with residues Glu1660-Arg1668 deleted, 87 amino acids; Variant of the VWF96 vector; the C-terminal HSV-6xHis tag follows residue 1659; source: E. coli BL21 (DE3), purified (Ni2+ HiTrap Chelating HP, Capto Q ImpRes); not shown: 6xHis-SUMO, N-terminal, kept; HSV-6xHis, C-terminal, kept
B3: VWF96 (VWF A2 domain fragment Gly1573-Arg1668 with N-terminal 6xHis-SUMO tag and C-terminal HSV-6xHis tag) (domain or fragment)
chain: GNRTNTGLALRYLSDHSFLVSQGDREQAPNLVYMVTGNPASDEIKRLPGDIQVVPIGVGPNANVQELERIGWPNAPILIQDFETLPREAPDLVLQR
notes: von Willebrand factor, A2 domain fragment, residues Gly1573-Arg1668 (96 amino acids); SUMO tag is a derivative of yeast Smt3 (13 kDa, Invitrogen); Vector pET25b(+); About 32 kDa with tags; also called wild-type VWF96; source: E. coli BL21 (DE3), purified (Ni2+ HiTrap Chelating HP, Capto Q ImpRes); not shown: 6xHis-SUMO, N-terminal, kept; HSV-6xHis, C-terminal, kept
B4: VWF96-Dis (domain or fragment, human, UniProt P04275 1573-1668, looked up)
chain: B3 chain with D42A, I44Q, K45E, R46E, D50T
notes: Variant of the VWF96 vector; source: E. coli BL21 (DE3), purified (Ni2+ HiTrap Chelating HP, Capto Q ImpRes); not shown: 6xHis-SUMO, N-terminal, kept; HSV-6xHis, C-terminal, kept
B5: VWF96-Cys (domain or fragment, human, UniProt P04275 1573-1668, looked up)
chain: B3 chain with I70Q, W72Y, A75S, I77Q, L78Q, I79Q
notes: as for B4
B6: VWF73 (tag-free VWF A2 domain fragment Asp1596-Arg1668) (domain or fragment)
chain: DREQAPNLVYMVTGNPASDEIKRLPGDIQVVPIGVGPNANVQELERIGWPNAPILIQDFETLPREAPDLVLQR
notes: von Willebrand factor, human, A2 domain fragment, residues Asp1596-Arg1668 (73 amino acids); Vector pET-SUMO; also called tag-free VWF73; source: E. coli One Shot BL21 Star (DE3), purified as VWF96; His-SUMO tag removed with SUMO protease-1, passed over Ni2+ column; not shown: 6xHis-SUMO, N-terminal, cleaved

How the values were obtained:
[1] = biological target: VWF96-MP (human, UniProt P04275 1573-1668, L1603N); test: ELISA
[2] = biological target: VWF96-Spacer (human, UniProt P04275 1573-1668, L1664T | V1665N | L1666Q); test: ELISA
[3] = biological target: T1, ADAMTS13; test: ELISA; plate binding: 100 nM VWF96 or variant adsorbed on 96-well plates (50 mM sodium bicarbonate pH 9.6, overnight, 4 °C); 0-600 nM ADAMTS13 in PBS/1% BSA/80 mM EDTA, room temperature, 1.5 h (legend: 1 h); detected with biotinylated anti-ADAMTS13 TSP2-4 polyclonal antibody; one-site fit; apparent KD; conditions: one partner purified
[4] = biological target: T2, ADAMTS13 MDTCS(E225Q); test: ITC; 27 μM MDTCS(E225Q) in the cell, injections of 279 μM tag-free VWF73; 20 mM HEPES pH 7.5, 150 mM NaCl, 5 mM CaCl2; 25 °C; mean of four experiments; conditions: both partners purified

Row | Binder | Kd [3] | further results
1 | B1 |  | Kd [1]: 65 nM; Kd [2]: 241 nM
2 | B2 | 475 nM | 
3 | B3 | 40 nM | 
4 | B4 | 615 nM | 
5 | B5 | 632 nM | 
6 | B6 |  | Kd [4]: 450 nM
